Data on seven substances can be found in paper PMC8605372.

Data set [1] deals with dansyl-Gab2(637-649) peptide (UniProt Q9UQC2). The data set can be described thus: Stopped-flow fluorescence (FRET), displacement kinetics. The conditions noted are these: 298 K in Results, 283 K in Methods (conflict in the article), no added salt (50 mM buffer only), 50 mM acetate at pH 5.0 and 5.5, 50 mM Bis-Tris at pH 6.0 and 6.5, 50 mM Hepes at pH 7.0 and 7.5, 50 mM Tris-HCl at pH 8.

For data set [2] the target is unchanged. Briefly: Stopped-flow kinetics; K D from the rate constants of C1 and C2. The conditions noted are these: 298 K in Results, 283 K in Methods (conflict in the article), no added salt (50 mM buffer only), 50 mM acetate at pH 5.0 and 5.5, 50 mM Bis-Tris at pH 6.0 and 6.5, 50 mM Hepes at pH 7.0 and 7.5, 50 mM Tris-HCl at pH 8.
For data set [3] the target is unchanged. The data set can be described thus: Stopped-flow fluorescence (FRET Trp112 to dansyl), pseudo-first-order association kinetics. The settings on record: 298 K in Results, 283 K in Methods (conflict in the article), no added salt (50 mM buffer only), 50 mM acetate at pH 5.0 and 5.5, 50 mM Bis-Tris at pH 6.0 and 6.5, 50 mM Hepes at pH 7.0 and 7.5, 50 mM Tris-HCl at pH 8.

The target is the same in data set [4]. The data set can be described thus: Stopped-flow fluorescence (FRET), pseudo-first-order association kinetics, ionic-strength series. The conditions noted are these: pH 8.0, 298 K in Results, 283 K in Methods (conflict in the article).
The target of data set [5] is His169 (UniProt position 169, KSKVTHVMIRC). Briefly: kinetics (stopped-flow fluorescence/FRET binding and displacement). The conditions noted are these: 283 K according to Methods (stopped-flow binding and displacement) and the Figure S2 legend. Results text states 298 K.; 50 mM buffer, no added salt stated for the pH series; 50 mM acetate (pH 5.0, 5.5), 50 mM Bis-Tris (pH 6.0, 6.5), 50 mM Hepes (pH 7.0, 7.5), 50 mM Tris-HCl (pH 8.0); 2 mM DTT in all; Folded domain, cysteines reduced. The binding reaction with the phosphopeptide was followed, so the pKa is derived from both kon and koff.

Take “SHP2 (PTPN11) C-terminal SH2 domain, wild type”: the k off turned out to be 80 s⁻¹ in data set [1] (pH 5.0); 79 s⁻¹ in data set [1] (pH 5.5); 112 s⁻¹ in data set [1] (pH 6.0); 141 s⁻¹ in data set [1] (pH 6.5); 147 s⁻¹ in data set [1] (pH 7.0); 234 s⁻¹ in data set [1] (pH 7.5). Moreover, the k off in data set [1] (pH 8.0) was 210 s⁻¹. Further, the K D came to 3.8 µM in data set [2] (pH 5.0); 2.8 µM in data set [2] (pH 5.5); 4.7 µM in data set [2] (pH 6.0); 6.9 µM in data set [2] (pH 6.5); 6.8 µM in data set [2] (pH 7.0); 17.2 µM in data set [2] (pH 7.5). The K D in data set [2] (pH 8.0) turned out to be 21.3 µM. The k on turned out to be 2.11e+07 M⁻¹ s⁻¹ in data set [3] (pH 5.0); 2.86e+07 M⁻¹ s⁻¹ in data set [3] (pH 5.5); 2.41e+07 M⁻¹ s⁻¹ in data set [3] (pH 6.0); 2e+07 M⁻¹ s⁻¹ in data set [3] (pH 6.5); 2.2e+07 M⁻¹ s⁻¹ in data set [3] (pH 7.0); 1.36e+07 M⁻¹ s⁻¹ in data set [3] (pH 7.5). The k on is 9.9e+06 M⁻¹ s⁻¹ in data set [3] (pH 8.0); 6.4e+06 ± 500000 M⁻¹ s⁻¹ in data set [4] (highest of the series: 50 mM Tris-HCl + 150 mM NaCl, Tris-HCl 50 mM pH 8.0); 3.14e+07 ± 3.8e+06 M⁻¹ s⁻¹ in data set [4] (lowest of the series: 10 mM Tris-HCl, no NaCl, Tris-HCl 10 mM pH 8.0).
Consider SHP2 C-SH2 domain H114A H114A, for which the k off in data set [1] (pH 5.0) was 92 s⁻¹; in data set [1] (pH 5.5), 102 s⁻¹; in data set [1] (pH 6.0), 148 s⁻¹; in data set [1] (pH 6.5), 125 s⁻¹; in data set [1] (pH 7.0) it was 144 s⁻¹; in data set [1] (pH 7.5), 253 s⁻¹. In addition, the k off in data set [1] (pH 8.0) was 263 s⁻¹. Further, the K D in data set [2] (pH 5.0) was determined as 8.5 µM; in data set [2] (pH 5.5) it was 3.2 µM; in data set [2] (pH 6.0), 2.9 µM; in data set [2] (pH 6.5) it was 5.2 µM; in data set [2] (pH 7.0) it was 4.7 µM; in data set [2] (pH 7.5), 12 µM. In data set [2] (pH 8.0), the K D worked out at 12 µM. The k on in data set [3] (pH 5.0) amounted to 1.08e+07 M⁻¹ s⁻¹; in data set [3] (pH 5.5), 3.2e+07 M⁻¹ s⁻¹; in data set [3] (pH 6.0), 5.2e+07 M⁻¹ s⁻¹; in data set [3] (pH 6.5), 2.4e+07 M⁻¹ s⁻¹; in data set [3] (pH 7.0), 3.1e+07 M⁻¹ s⁻¹; in data set [3] (pH 7.5) it was 2.1e+07 M⁻¹ s⁻¹. In addition, in data set [3] (pH 8.0), the k on is 2.3e+07 M⁻¹ s⁻¹.
Regarding SHP2 C-SH2 domain H116A H116A, the k off in data set [1] (pH 5.0) came out at 103 s⁻¹; in data set [1] (pH 5.5) it was 98 s⁻¹; in data set [1] (pH 6.0), 105 s⁻¹; in data set [1] (pH 6.5), 130 s⁻¹; in data set [1] (pH 7.0) it was 170 s⁻¹; in data set [1] (pH 7.5), 204 s⁻¹. Moreover, the k off in data set [1] (pH 8.0) turned out to be 196 s⁻¹. The K D in data set [2] (pH 5.0) was determined as 6.6 µM; in data set [2] (pH 5.5), 3.4 µM; in data set [2] (pH 6.0), 5.6 µM; in data set [2] (pH 6.5), 6.4 µM; in data set [2] (pH 7.0) it was 11 µM; in data set [2] (pH 7.5) it was 20 µM. For the same substance, the K D in data set [2] (pH 8.0) came out at 14 µM. In addition, the k on in data set [3] (pH 5.0) is 1.6e+07 M⁻¹ s⁻¹; in data set [3] (pH 5.5), 2.9e+07 M⁻¹ s⁻¹; in data set [3] (pH 6.0), 1.9e+07 M⁻¹ s⁻¹; in data set [3] (pH 6.5), 2e+07 M⁻¹ s⁻¹; in data set [3] (pH 7.0), 1.5e+07 M⁻¹ s⁻¹; in data set [3] (pH 7.5) it was 1.1e+07 M⁻¹ s⁻¹. The k on in data set [3] (pH 8.0) was found to be 1.4e+07 M⁻¹ s⁻¹.
Regarding SHP2 C-SH2 domain H132A H132A, the k off in data set [1] (pH 5.0) amounted to 80 s⁻¹; in data set [1] (pH 5.5) it was 69 s⁻¹; in data set [1] (pH 6.0) it was 91 s⁻¹; in data set [1] (pH 6.5), 143 s⁻¹; in data set [1] (pH 7.0), 168 s⁻¹; in data set [1] (pH 7.5) it was 219 s⁻¹. Moreover, the k off in data set [1] (pH 8.0) amounted to 287 s⁻¹. The K D came out at 3.6 µM in data set [2] (pH 5.0); 2.4 µM in data set [2] (pH 5.5); 2 µM in data set [2] (pH 6.0); 10.4 µM in data set [2] (pH 6.5); 8.5 µM in data set [2] (pH 7.0); 12 µM in data set [2] (pH 7.5). Besides, the K D in data set [2] (pH 8.0) turned out to be 27 µM. Also, the k on came to 2.2e+07 M⁻¹ s⁻¹ in data set [3] (pH 5.0); 2.9e+07 M⁻¹ s⁻¹ in data set [3] (pH 5.5); 4.5e+07 M⁻¹ s⁻¹ in data set [3] (pH 6.0); 1.4e+07 M⁻¹ s⁻¹ in data set [3] (pH 6.5); 2e+07 M⁻¹ s⁻¹ in data set [3] (pH 7.0); 1.8e+07 M⁻¹ s⁻¹ in data set [3] (pH 7.5). Moreover, the k on in data set [3] (pH 8.0) amounted to 1.1e+07 M⁻¹ s⁻¹.
SHP2 C-SH2 domain H143A H143A: the k off in data set [1] (pH 5.0) amounted to 154 s⁻¹; in data set [1] (pH 5.5), 127 s⁻¹; in data set [1] (pH 6.0), 149 s⁻¹; in data set [1] (pH 6.5) it was 226 s⁻¹; in data set [1] (pH 7.0) it was 183 s⁻¹; in data set [1] (pH 7.5), 225 s⁻¹. In addition, the k off in data set [1] (pH 8.0) stood at 148 s⁻¹. Further, the K D is 14.3 µM in data set [2] (pH 5.0); 4 µM in data set [2] (pH 5.5); 7.4 µM in data set [2] (pH 6.0); 25 µM in data set [2] (pH 6.5); 23 µM in data set [2] (pH 7.0); 17 µM in data set [2] (pH 7.5). Also, the K D in data set [2] (pH 8.0) was 10.8 µM. Besides, the k on in data set [3] (pH 5.0) turned out to be 1.1e+07 M⁻¹ s⁻¹; in data set [3] (pH 5.5), 3.2e+07 M⁻¹ s⁻¹; in data set [3] (pH 6.0) it was 2e+07 M⁻¹ s⁻¹; in data set [3] (pH 6.5), 9e+06 M⁻¹ s⁻¹; in data set [3] (pH 7.0), 8e+06 M⁻¹ s⁻¹; in data set [3] (pH 7.5), 1.3e+07 M⁻¹ s⁻¹. In addition, the k on in data set [3] (pH 8.0) was found to be 1.4e+07 M⁻¹ s⁻¹.
Regarding SHP2 C-SH2 domain H196A H196A, the k off in data set [1] (pH 5.0) worked out at 125 s⁻¹; in data set [1] (pH 5.5), 114 s⁻¹; in data set [1] (pH 6.0), 116 s⁻¹; in data set [1] (pH 6.5), 132 s⁻¹; in data set [1] (pH 7.0), 125 s⁻¹; in data set [1] (pH 7.5), 172 s⁻¹. In data set [1] (pH 8.0), the k off worked out at 162 s⁻¹. Also, the K D was determined as 5.3 µM in data set [2] (pH 5.0); 2.9 µM in data set [2] (pH 5.5); 5.4 µM in data set [2] (pH 6.0); 3.4 µM in data set [2] (pH 6.5); 3.4 µM in data set [2] (pH 7.0); 13 µM in data set [2] (pH 7.5). Moreover, the K D in data set [2] (pH 8.0) is 13 µM. Further, the k on was 2.4e+07 M⁻¹ s⁻¹ in data set [3] (pH 5.0); 4e+07 M⁻¹ s⁻¹ in data set [3] (pH 5.5); 2.1e+07 M⁻¹ s⁻¹ in data set [3] (pH 6.0); 3.9e+07 M⁻¹ s⁻¹ in data set [3] (pH 6.5); 3.7e+07 M⁻¹ s⁻¹ in data set [3] (pH 7.0); 1.3e+07 M⁻¹ s⁻¹ in data set [3] (pH 7.5). The k on in data set [3] (pH 8.0) amounted to 1.2e+07 M⁻¹ s⁻¹.
As a reminder, the pKa is the pH at which an ionisable group is half protonated. Regarding “Tyrosine-protein phosphatase non-receptor type 11 (SHP2), C-terminal SH2 domain (C-SH2) (Homo sapiens (inferred; organism not stated in the article))”, the pKa in data set [5] is 7.1 ± 0.2.
